Experiments:
[1] = biological target: T1, LAG3 Protein, Human, Recombinant (His Tag) (Sino Biological Catalog No. 16498-H08H) (human, UniProt P18627 23-450); test: SPR binning on LAG3-His; competitor 1
T1 construct: Bought protein; also called hLAG3-His; LAG3-His; not shown: His tag
T1 sequence (looked up): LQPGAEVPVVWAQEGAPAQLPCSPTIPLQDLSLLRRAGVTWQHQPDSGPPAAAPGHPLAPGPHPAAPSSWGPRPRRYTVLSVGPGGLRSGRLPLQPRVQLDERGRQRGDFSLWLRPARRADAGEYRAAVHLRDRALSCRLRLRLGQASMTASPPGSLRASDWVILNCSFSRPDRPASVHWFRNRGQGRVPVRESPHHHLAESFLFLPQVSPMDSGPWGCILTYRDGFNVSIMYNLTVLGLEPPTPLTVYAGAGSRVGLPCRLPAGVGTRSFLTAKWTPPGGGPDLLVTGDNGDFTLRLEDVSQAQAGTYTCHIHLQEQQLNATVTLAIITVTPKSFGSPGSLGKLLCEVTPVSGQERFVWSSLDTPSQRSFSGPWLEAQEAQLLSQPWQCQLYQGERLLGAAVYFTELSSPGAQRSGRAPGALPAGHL
Experimental: (§1) The chip surface was regenerated after each cycle with 25 mM NaOH followed by HBS-EP wash provided in the kit.

[2] = biological target: T1, LAG3 Protein, Human, Recombinant (His …); test: SPR binning on LAG3-His; competitor 20
Experimental: as §1

[3] = biological target: T1, LAG3 Protein, Human, Recombinant (His …); test: SPR (Biacore), sdAb captured by anti-human Fc, LAG3-His analyte
Experimental: The binding of the single domain antibodies to recombinant human LAG3 protein (rhLAG3) was examined by Biacore™ assay. […] The coating was carried out according to the manufacturer’s instructions accompanying the kit (Catalog No. BR-1008-39, GE). […] The chip surface was regenerated after each cycle with 25 mM NaOH followed by HBS-EP wash provided in the kit.

[4] = biological target: T2, human LAG3 expressed on cells (human, UniProt P18627 23-525); test: cell-based or functional assay
T2 sequence (looked up): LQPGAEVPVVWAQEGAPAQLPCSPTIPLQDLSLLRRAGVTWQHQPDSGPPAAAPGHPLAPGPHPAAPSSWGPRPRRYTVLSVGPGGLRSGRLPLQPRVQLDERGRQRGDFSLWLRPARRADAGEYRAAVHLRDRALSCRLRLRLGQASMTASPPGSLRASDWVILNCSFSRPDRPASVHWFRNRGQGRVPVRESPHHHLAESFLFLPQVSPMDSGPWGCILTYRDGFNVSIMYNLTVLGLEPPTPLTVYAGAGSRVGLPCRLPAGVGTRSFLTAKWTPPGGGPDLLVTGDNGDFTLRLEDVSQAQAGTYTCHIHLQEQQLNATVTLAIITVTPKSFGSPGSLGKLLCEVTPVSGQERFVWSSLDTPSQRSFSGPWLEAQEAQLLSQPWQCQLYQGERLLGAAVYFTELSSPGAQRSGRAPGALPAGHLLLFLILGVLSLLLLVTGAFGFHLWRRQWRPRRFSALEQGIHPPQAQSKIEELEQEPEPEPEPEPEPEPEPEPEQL

[5] = biological target: T1, LAG3 Protein, Human, Recombinant (His …); test: SPR binning on LAG3-His; competitor 27
Experimental: as §1

[6] = biological target: T1, LAG3 Protein, Human, Recombinant (His …); test: SPR binning on LAG3-His; competitor 24
Experimental: as §1

[7] = biological target: T1, LAG3 Protein, Human, Recombinant (His …); test: SPR binning on LAG3-His; competitor 25
Experimental: as §1

[8] = biological target: T1, LAG3 Protein, Human, Recombinant (His …); test: SPR binning on LAG3-His; competitor 17
Experimental: as §1

[9] = biological target: T1, LAG3 Protein, Human, Recombinant (His …); test: SPR binning on LAG3-His; competitor 21
Experimental: as §1

[10] = biological target: T2, human LAG3 expressed on cells; test: cell-based or functional assay; remark: listed apart in the source
[11] = biological target: T1, LAG3 Protein, Human, Recombinant (His …); test: SPR binning on LAG3-His; competitor 37
Experimental: as §1

[12] = biological target: T1, LAG3 Protein, Human, Recombinant (His …); test: SPR binning on LAG3-His; competitor BMS
Experimental: as §1

[13] = biological target: T1, LAG3 Protein, Human, Recombinant (His …); test: SPR binning on LAG3-His; competitor 18
Experimental: as §1

[14] = biological target: T1, LAG3 Protein, Human, Recombinant (His …); test: SPR binning on LAG3-His; competitor 73
Experimental: as §1

| Binder | RU [1] [RU] | RU [2] [RU] | koff [3] [s⁻¹] | kon [3] [M⁻¹ s⁻¹] | IL-2, % of BMS, at 0.005080526 ug/mL [4] [%] | IL-2, % of BMS, at 0.015241579 ug/mL [4] [%] | IL-2, % of BMS, at 0.045724737 ug/mL [4] [%] | IL-2, % of BMS, at 0.137174211 ug/mL [4] [%] | IL-2, % of BMS, at 0.411522634 ug/mL [4] [%] | IL-2, % of BMS, at 1.234567901 ug/mL [4] [%] | IL-2, % of BMS, at 3.703703704 ug/mL [4] [%] | IL-2, % of BMS, at 11.11111111 ug/mL [4] [%] | IL-2, % of BMS, at 33.33333333 ug/mL [4] [%] | IL-2, % of BMS, at 100 ug/mL [4] [%] | RU [5] [RU] | RU [6] [RU] | RU [7] [RU] | RU [8] [RU] | RU [9] [RU] | EC50 for IL-2 rescue, hLAG3 Jurkat T system [10] [nM] | further results |
| --- | --- | --- | --- | --- | --- | --- | --- | --- | --- | --- | --- | --- | --- | --- | --- | --- | --- | --- | --- | --- | --- |
| sdAb No. 1 (VHH, the tested form was captured by anti-human Fc, its Fc is not described; also called sdAb 1; not shown: Fc part implied by anti-human Fc capture) VHH: QLQLVESGGGLVQAGGSLRLSCAASGFTFDDYAIGWFRQAPGKEREGVSCIRSSDGSTYYADSVKGRFTISSDNAKNTVYLQMNSLKPEDTAVYYCAKDNYSDCRGPYHYWGQGTQVTVSS | 22 | -14.8 | 5.05e-08 | 4.77e+06 | 8.4 | 8.77 | 6.07 | 14.2 | 14.8 | 30.7 | 46.4 | 45.7 | 54.4 | 51.3 | 4.9 | -10.6 | 30 | -6.9 | -114 | 15.7 | Efficacy (IL-2 production, BMS = 100%) [10]: 41.4%; RU [11]: -8.4 RU; RU [12]: 37.4 RU; RU [13]: -10.7 RU; RU [14]: -11.6 RU |
| sdAb No. 73 (VHH, Fc not described; also called sdAb 73; not shown: Fc part implied by anti-human Fc capture) VHH: QVQLVESGGGLVQPGGSLKLSCTASGFTLDYYAIAWFRQAPGKEREAVSCISSSDGSTRYADSVKGRFTISRDNAKNTVYLQMNSLKPEDTAVYYCAADPYGDCRGPYDYWGQGTQVTVSS | -7.3 | -117 | 0.000975 | 5.35e+06 | 0.495 | 3.55 | 3.63 | 6.64 | 15.5 | 19.5 | 24.5 | 30.6 | 36.8 | 41 | -2.2 | -9.6 | 9.8 | -12.5 | -10.2 | 42.6 | Kd [3]: 0.182 nM; Efficacy (IL-2 production, BMS = 100%) [10]: 56.4%; RU [11]: -6.9 RU; RU [12]: 27 RU; RU [13]: -10.6 RU; RU [14]: -9.7 RU |
| sdAb No. 20 (VHH, Fc of the tested form not described; also called sdAb 20; not shown: Fc part implied by anti-human Fc capture) VHH: QVQLVESGGGLVQPGGSLRLSCAASGLTLDGYAVGWFRQAPGKDREGLSCISGSDGSTHYLDSVKGRFTISRDNAKSTMALQMNSLQFGDTAIYYCAARRGSCSGSWTYWGQGTQVTVSS | -9.9 | -24.2 | 0.000429 | 1.71e+06 | 8.49 | 9.36 | 3.55 | 6.06 | 14.7 | 20.3 | 38 | 33 | 34.5 | 35.1 | -16.6 | -209 | 205 | -7.8 | -20.1 | 14.2 | Kd [3]: 0.252 nM; Efficacy (IL-2 production, BMS = 100%) [10]: 26.9%; RU [11]: -19.3 RU; RU [12]: 23.3 RU; RU [13]: -12 RU; RU [14]: -21.8 RU |
| sdAb No. 21 (VHH, Fc of the tested form not described; also called sdAb 21; not shown: Fc part implied by anti-human Fc capture) VHH: QLQLVESGGGLVQPGGSLRLSCAASGLTLDGYAIAWFRQAPGKEREGLSCISGTDGSTHYLDSVKGRFTISRDNGKNTMALQMNSLQFGDTAIYYCAARRGSCSGSWTYWGQGTQITVSS | -4.7 | -12.6 | 0.00178 | 6.41e+06 | 10.5 | 13.7 | 13.4 | 21.7 | 24.6 | 27.7 | 32.8 | 31.7 | 38.9 | 35 | -14.8 | -18.9 | 179 | -12 | -19.1 | 3.41 | Kd [3]: 0.278 nM; Efficacy (IL-2 production, BMS = 100%) [10]: 31%; RU [11]: -17.3 RU; RU [12]: 194 RU; RU [13]: -10.3 RU; RU [14]: -19.5 RU |
